This is an account of results in US20190161555A1 (ALLIGATOR BIOSCIENCE, published 2019).

The target of the assay is T1, Human OX40 (R&D Systems, 3388-OX) (human, UniProt P43489 29-216).
T1 construct: bought; also called OX40-Fc; Human OX40 (R&D systems, #3358_OX)
T1 sequence (looked up): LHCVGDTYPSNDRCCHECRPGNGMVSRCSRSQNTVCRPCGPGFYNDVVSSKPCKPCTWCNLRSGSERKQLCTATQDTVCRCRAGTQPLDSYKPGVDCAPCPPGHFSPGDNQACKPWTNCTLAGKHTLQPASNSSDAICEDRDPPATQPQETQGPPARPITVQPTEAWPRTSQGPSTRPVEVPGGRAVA
The assay is described as follows: dual ELISA: OX40-Fc coated, detection with biotinylated 5T4-Fc and streptavidin-HRP, luminescence. The procedure:
A dual ELISA was used to detect simultaneous binding of the two targets by the bispecific antibodies. ELISA plates were coated with OX40-Fc (R&D systems, #3388-OX, 0.5 μg/ml) over night at 4° C. followed by blocking with PBST+2% bovine serum albumin (BSA) for 1 h at room temperature (RT). […] Biotinylated 5T4-Fc (0.5 μg/ml), followed by HRP-labelled streptavidin (Pierce #21126) were used for detection. Super signal ELISA Pico Chemiluminescent Substrate (Thermo Scientific, #37069) was used as substrate and luminescence was measured using FLUOstar Optima.
Background: An ELISA detects its analyte on a solid surface through an enzyme-linked reagent.

B1: 1210/1211 (antibody, IgG1, V domains shown)
VH: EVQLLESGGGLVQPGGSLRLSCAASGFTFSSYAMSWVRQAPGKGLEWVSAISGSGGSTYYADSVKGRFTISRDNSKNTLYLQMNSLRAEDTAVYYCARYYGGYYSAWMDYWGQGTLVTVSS
VL: DIQMTQSPSSLSASVGDRVTITCRASQSISSYLNWYQQKPGKAPKLLIYAASSLQSGVPSRFSGSGSGTDFTLTISSLQPEDFATYYCQQTYGYLHTFGQGTKLEIK
notes: 5T4 antibody
Take B1: the binding result is “no binding (tested: about 80 nM (log[conc ab] 1.9))”.
